Reference: the supplement of paper PMC10126150
± gives the standard deviation of the averaged measurements.

The sequences below were run on ATP (assay: switch fluorescence ratio, 500 uM ATP over buffer (Cy3 cluster intensity, sum of 5 cycles each) (fold (ratio)); higher = stronger signal-on switching upon ATP binding; sequences stand for … in TCGTCGGCAGCGTCAGATGTGTATAAGAGACAGTTTTTTTTTTTTTTTTTTTTTTTTT…TC). Details: aptamer strand: ATP DNA aptamer (quencher-CACCTGGGGGAGTATTGCGGAGGAAGG + anchor), 100 nM annealed; ATP concentration: 500 uM.
Summary of the method: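 Exposure to 500 uM ATP lasted 15 min at 22 °C before imaging, and a selection-buffer image was taken beforehand, for Cy3-labelled switching-strand clusters on a modified Illumina MiSeq flow-cell annealed to 100 nM quencher-labelled ATP aptamer. Five buffer/ATP cycles were run with NaOH stripping and re-annealing between them. The fluorescence ratio per cluster is summed target-cycle over summed buffer-cycle Cy3 intensity, averaged per switch-domain sequence. Clusters outside 100-1000 RFU were excluded.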
AGACGTGCAG gave a switch fluorescence ratio of 1.022 ± 0.006.
TGTTCTAAAG gave a switch fluorescence ratio of 0.997 ± 0.025.
For TTGTGGCCGT, the switch fluorescence ratio was 1.039 ± 0.0035.
TCAAAAGGTG was tested, and the switch fluorescence ratio was 1.33 ± 0.22.
GTTGTTTACC showed a switch fluorescence ratio of 1.02 ± 0.021.
TTGATGGGGA was tested, and the switch fluorescence ratio was 0.982 ± 0.014.
In the case of TTTGACGTTT, the switch fluorescence ratio is reported as 1.02 ± 0.059.
For GGTATTGGTT, the switch fluorescence ratio was 0.987 ± 0.048.
With AGTGGTGGG the switch fluorescence ratio was 1.02 ± 0.068.
With TGTTGTTGTA the switch fluorescence ratio was 1.015 ± 0.0081.
With AGAGTATTGC the switch fluorescence ratio was 1.04 ± 0.16.
TTTTTTGATC was tested, and the switch fluorescence ratio was 0.999 ± 0.034.
GCAATAATCG gave a switch fluorescence ratio of 1.98 ± 1.4.
With TTTAATCCGT the switch fluorescence ratio was 1.01 ± 0.055.
In the case of TACTTGAGCG, the switch fluorescence ratio is reported as 1.02 ± 0.02.
In the case of ATTTGGTGAC, the switch fluorescence ratio is reported as 0.9987 ± 0.0042.
ATTGTAGGGT was tested, and the switch fluorescence ratio was 0.972 ± 0.021.
With GGTCTTTTTT the switch fluorescence ratio was 1.02 ± 0.05.
Sequence TGTGGGGGAA has a switch fluorescence ratio of 1.2 ± 0.31.
AAATTGATCC showed a switch fluorescence ratio of 0.964 ± 0.016.
GCTCAGGGGA showed a switch fluorescence ratio of 1.21 ± 0.097.
In the case of TTGAATGCAT, the switch fluorescence ratio is reported as 0.969 ± 0.13.
CGGAAGTATG was tested, and the switch fluorescence ratio was 1.04 ± 0.025.
Sequence ATCGTAGATT has a switch fluorescence ratio of 0.993 ± 0.016.
GTAAGGAGTA was tested, and the switch fluorescence ratio was 0.96199 ± 0.0002.
Sequence CGTATGAAAA has a switch fluorescence ratio of 1 ± 0.014.
GGGTGAACTC was tested, and the switch fluorescence ratio was 0.988 ± 0.031.
Work on AGGCCCTAGG yielded a switch fluorescence ratio of 1.046 ± 0.0036.
TTTTCGGTTA was tested, and the switch fluorescence ratio was 1.01 ± 0.015.
Work on TCAGACTACT yielded a switch fluorescence ratio of 1.02 ± 0.021.
ACAATTGATG gave a switch fluorescence ratio of 1 ± 0.04.
GAAAAAGGAC showed a switch fluorescence ratio of 1.27 ± 0.32.
With CGGGTGGGAG the switch fluorescence ratio was 0.991 ± 0.038.
For TTGTCCAAAT, the switch fluorescence ratio was 0.986 ± 0.0099.
Sequence GAATCCGGGA has a switch fluorescence ratio of 1.05 ± 0.087.
In the case of ATAATTGTTT, the switch fluorescence ratio is reported as 0.984 ± 0.042.
TTTATCATGC showed a switch fluorescence ratio of 0.987 ± 0.019.
In the case of ATAGAAGGGA, the switch fluorescence ratio is reported as 0.991 ± 0.044.
Sequence ATTAGTGATC has a switch fluorescence ratio of 1.003 ± 0.0011.
In the case of CGGTGGGAGT, the switch fluorescence ratio is reported as 0.973 ± 0.03.
Work on ACAGTACTTG yielded a switch fluorescence ratio of 1.292 ± 0.0098.
Work on AAGTCATGGG yielded a switch fluorescence ratio of 1.01 ± 0.031.
With GTTATAATTG the switch fluorescence ratio was 0.984 ± 0.035.
For CACTGGGGTT, the switch fluorescence ratio was 0.988 ± 0.017.
For TTTCAAATGG, the switch fluorescence ratio was 0.975 ± 0.028.
TTGATTGGGG gave a switch fluorescence ratio of 0.989 ± 0.029.
Sequence AGTGGGAGTA has a switch fluorescence ratio of 1.05 ± 0.052.
GGTACCACTT gave a switch fluorescence ratio of 0.992 ± 0.039.
GATTTTTGGT was tested, and the switch fluorescence ratio was 0.995 ± 0.028.
For GGGGAGAGGT, the switch fluorescence ratio was 1 ± 0.067.
With GGATATCAAG the switch fluorescence ratio was 1.01 ± 0.016.
TGTAATATGG showed a switch fluorescence ratio of 1.1 ± 0.14.
With GCATGAGGTG the switch fluorescence ratio was 1.08 ± 0.021.
ATAGGGGCGC was tested, and the switch fluorescence ratio was 1 ± 0.047.
GGCCGCGCTG gave a switch fluorescence ratio of 1.04 ± 0.016.
TTCGGAGGGC showed a switch fluorescence ratio of 0.996 ± 0.031.
For TTTGTTGCTC, the switch fluorescence ratio was 1 ± 0.03.
Sequence TTATTGAAAA has a switch fluorescence ratio of 1 ± 0.032.
For TTAGCATAAA, the switch fluorescence ratio was 1.04 ± 0.024.
AGTGAGCAGG was tested, and the switch fluorescence ratio was 1.11 ± 0.015.
Work on GGGGGGGATA yielded a switch fluorescence ratio of 1 ± 0.038.
In the case of TTGAGAAATT, the switch fluorescence ratio is reported as 1 ± 0.014.
With TATGGTGGGT the switch fluorescence ratio was 0.995 ± 0.027.
CAAGGTCAGA gave a switch fluorescence ratio of 1.018 ± 0.01.
CTGTAGAGAG showed a switch fluorescence ratio of 1.01 ± 0.063.
For AGGTGTGCGC, the switch fluorescence ratio was 1.01 ± 0.07.
For CCCAATTTGA, the switch fluorescence ratio was 1.06 ± 0.014.
TGCCGTAGTC gave a switch fluorescence ratio of 0.9685 ± 0.0092.
In the case of TCTCTGGATG, the switch fluorescence ratio is reported as 1.02 ± 0.013.
Work on TCAGGACGGA yielded a switch fluorescence ratio of 1.018 ± 0.0015.
With GTGTGCGCTG the switch fluorescence ratio was 1.008 ± 0.0073.
TATTAATTCT showed a switch fluorescence ratio of 0.972 ± 0.036.
In the case of CGAATTAGGT, the switch fluorescence ratio is reported as 1.03 ± 0.019.
For CCTTGTTTTT, the switch fluorescence ratio was 1.01 ± 0.01.
In the case of GGGGTGTGTG, the switch fluorescence ratio is reported as 0.986 ± 0.021.
GGTTTTGATG showed a switch fluorescence ratio of 0.98 ± 0.039.
With ATAGAATGAT the switch fluorescence ratio was 0.995 ± 0.017.
In the case of TTTAGGAAGT, the switch fluorescence ratio is reported as 1.0072 ± 0.00083.
TAATTTTGGC showed a switch fluorescence ratio of 0.99 ± 0.018.
GGCATAACAC gave a switch fluorescence ratio of 1.093 ± 0.0088.
TTTTAATTT showed a switch fluorescence ratio of 0.997 ± 0.042.
In the case of CGTGTCGCCT, the switch fluorescence ratio is reported as 1.01 ± 0.015.
AATAAAAGTT was tested, and the switch fluorescence ratio was 1.1 ± 0.14.
Work on AGGTTATGGT yielded a switch fluorescence ratio of 0.992 ± 0.052.
Work on ATAGCGTATT yielded a switch fluorescence ratio of 0.998 ± 0.049.
